Experimental data from patent US20150337049A1 (published 2015).
Where a chain is given by its changes, count along the chain named. Where two headings read alike, the source gives them in different places. Blank lines part the entries; values can stand above or below the binder they belong to.

How the values were obtained:
HSC-F (cynomolgous CD3) [1] = biological target: T1, HSC-F (cynomolgous CD3) (cynomolgus monkey, UniProt Q95LI8 22-171; Q95LI7 23-181); assay: FACS binding, HSC-F
HSC-F (cynomolgous CD3) [2] = biological target: T1, HSC-F (cynomolgous CD3); assay: FACS binding, HSC-F; remark: listed apart in the source
[3] = biological target: T2, human CD3 on the human T-cell line Jurkat (human, UniProt P09693 23-182; P20963 22-164); assay: FACS binding, Jurkat
T2 sequence (chain, as listed by the source, chain 1 of 4): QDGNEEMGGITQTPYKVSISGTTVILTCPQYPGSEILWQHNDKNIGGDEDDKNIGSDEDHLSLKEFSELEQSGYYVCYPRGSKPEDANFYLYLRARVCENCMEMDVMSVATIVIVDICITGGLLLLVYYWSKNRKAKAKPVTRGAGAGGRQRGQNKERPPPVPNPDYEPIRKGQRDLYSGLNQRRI
T2 sequence (chain, as listed by the source, chain 2 of 4): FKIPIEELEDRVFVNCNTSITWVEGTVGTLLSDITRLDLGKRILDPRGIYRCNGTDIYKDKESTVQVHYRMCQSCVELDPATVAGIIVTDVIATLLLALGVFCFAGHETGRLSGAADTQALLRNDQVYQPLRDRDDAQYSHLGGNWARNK
T2 sequence (P09693 23-182, chain 3 of 4): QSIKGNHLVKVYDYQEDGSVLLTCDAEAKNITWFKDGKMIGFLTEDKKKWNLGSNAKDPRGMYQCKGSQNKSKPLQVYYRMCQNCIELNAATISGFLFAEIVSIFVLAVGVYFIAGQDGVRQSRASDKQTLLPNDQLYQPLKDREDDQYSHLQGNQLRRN
T2 sequence (P20963 22-164, chain 4 of 4): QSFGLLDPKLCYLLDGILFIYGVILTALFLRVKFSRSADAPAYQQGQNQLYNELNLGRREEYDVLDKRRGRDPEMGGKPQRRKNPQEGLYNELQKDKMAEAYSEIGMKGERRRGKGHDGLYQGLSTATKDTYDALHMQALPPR

Jurkat (CD3) = Jurkat (CD3) (human, UniProt P09693 23-182; P20963 22-164); assay: FACS binding, Jurkat
Chain of Jurkat (CD3) (chain, as listed by the source, chain 1 of 4): as the sequence (chain, as listed by the source, chain 1 of 4) above
Chain of Jurkat (CD3) (chain, as listed by the source, chain 2 of 4): as the sequence (chain, as listed by the source, chain 2 of 4) above
Chain of Jurkat (CD3) (P09693 23-182, chain 3 of 4): as the sequence (P09693 23-182, chain 3 of 4) above
Chain of Jurkat (CD3) (P20963 22-164, chain 4 of 4): as the sequence (P20963 22-164, chain 4 of 4) above

[4] = biological target: T2, human CD3 on the human T-cell line …; assay: FACS binding, Jurkat; remark: listed apart in the source

T1 sequence (Q95LI7 whole entry, looked up, chain 1 of 2): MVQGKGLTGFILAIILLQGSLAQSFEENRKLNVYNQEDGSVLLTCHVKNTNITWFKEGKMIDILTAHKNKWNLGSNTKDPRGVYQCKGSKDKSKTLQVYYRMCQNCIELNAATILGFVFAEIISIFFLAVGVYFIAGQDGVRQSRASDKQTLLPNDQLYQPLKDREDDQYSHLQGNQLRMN
T1 sequence (Q95LI8 whole entry, looked up, chain 2 of 2): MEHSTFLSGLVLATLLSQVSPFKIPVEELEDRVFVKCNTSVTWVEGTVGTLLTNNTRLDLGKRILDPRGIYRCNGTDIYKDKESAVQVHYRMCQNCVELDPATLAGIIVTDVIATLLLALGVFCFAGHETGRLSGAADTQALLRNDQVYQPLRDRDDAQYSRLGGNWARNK

B2: IgG1-huCD3-H1L2 (antibody, V domains shown)
VH: EVKLVESGGGLVQPGGSLRLSCAASGFTFNTYAMNWVRQAPGKGLEWVARIRSKYNNYATYYADSVKDRFTISRDDSKSSLYLQMNNLKTEDTAMYYCVRHGNFGNSYVSWFAYWGQGTLVTVSS
VL: QAVVTQEPSFSVSPGGTVTLTCRSSTGAVTTSNYANWVQQTPGQAFRGLIGGTNKRAPGVPARFSGSILGNKAALTITGAQADDESIYFCALWYSNLWVFGGGTKLTVL
- EC50 (HSC-F (cynomolgous CD3) [1]): 0.31 µg/mL

B5: IgG1-huCD3-H4L1, wild type Fc region (antibody, V domains shown)
VH: B2 VH with Q13K, G16R, S80I, N87S, L120M
VL: not shown
- EC50 [3]: 0.05 µg/mL

B6: IgG1-huCD3-H1L1 (antibody, V domains shown)
VH: B2 VH
VL: not shown
- EC50 (HSC-F (cynomolgous CD3) [1]): 0.37 µg/mL

B7: IgG1-huCD3-H1L3 (antibody, V domains shown)
VH: B2 VH
VL: B2 VL with I87D, F89Y
- EC50 (HSC-F (cynomolgous CD3) [1]): 0.28 µg/mL

B8: IgG1-huCD3-H1L2, wild type Fc region (antibody, V domains shown)
VH: B2 VH
VL: B2 VL
- EC50 [3]: 0.08 µg/mL

B9: IgG1-huCD3-H3L3 (antibody, V domains shown)
VH: B2 VH with Q13K, G16R, S80I, N87S
VL: B2 VL with I87D, F89Y
- EC50 (HSC-F (cynomolgous CD3) [1]): 0.11 µg/mL

B11: BsIgG1 CD3 x HER2 (bispecific antibody)
chain 1: B2 VH with V5L, G15K, R19K, K78Q, S80I, S125A
chain 2: QAVVTQESALTTSPGETVTLTCRSSTGAVTTSNYANWVQEKPDHLFTGLIGGTNKRAPGVPARFSGSLIGDKAALTITGAQTEDEAIYFCALWYSNLWVFGGGTKLTVL
chain 3: QVQLVQSGAEVKKPGASVKVSCKASGYTFTNYGISWVRQAPGQGLEWMGWLSAYSGNTIYAQKLQGRVTMTTDTSTTTAYMELRSLRSDDTAVYYCARDRIVVRPDYFDYWGQGTLVTVSS
chain 4: EIVLTQSPATLSLSPGERATLSCRASQSVSSYLAWYQQKPGQAPRLLIYDASNRATGIPARFSGSGSGTDFTLTISSLEPEDFAVYYCQQRSNWPRTFGQGTKVEIK
- EC50 (Jurkat (CD3)): 0.68 µg/mL

More lines, now with the values ahead:

- EC50 (HSC-F (cynomolgous CD3) [1]): 0.26 µg/mL
B1: IgG1-huCD3-H4L1 (antibody, V domains shown)
VH: B2 VH with Q13K, G16R, S80I, N87S, L120M
VL: not shown

- EC50 (HSC-F (cynomolgous CD3) [2]): 0.3 µg/mL
- EC50 (HSC-F (cynomolgous CD3) [1]): 0.19 µg/mL
B3: IgG1-huCD3-H3L1-LFLEDA (antibody, V domains shown)
VH: B2 VH with Q13K, G16R, S80I, N87S
VL: not shown

- EC50 [3]: 0.02 µg/mL
B4: IgG1-huCD3-H3L3, wild type Fc region (antibody, V domains shown)
VH: B2 VH with Q13K, G16R, S80I, N87S
VL: B2 VL with I87D, F89Y

- EC50 [3]: 0.06 µg/mL
B10: IgG1-huCD3-H1L3, wild type Fc region (antibody, V domains shown)
VH: B2 VH
VL: B2 VL with I87D, F89Y

- EC50 [4]: 0.04 µg/mL
- EC50 [3]: 0.04 µg/mL
B12: IgG1-huCD3-H3L1 with LFLEDA mutations (antibody, V domains shown)
VH: B2 VH with Q13K, G16R, S80I, N87S
VL: not shown

- EC50 (HSC-F (cynomolgous CD3) [2]): 3.54 µg/mL
B13: bsIgG1 huCD3-H3L1xHER2-LFLEDA (bispecific antibody)
heavy 1: EVKLVESGGGLVKPGRSLRLSCAASGFTFNTYAMNWVRQAPGKGLEWVARIRSKYNNYATYYADSVKDRFTISRDDSKSILYLQMNSLKTEDTAMYYCVRHGNFGNSYVSWFAYWGQGTLVTVSSASTKGPSVFPLAPSSKSTSGGTAALGCLVKDYFPEPVTVSWNSGALTSGVHTFPAVLQSSGLYSLSSVVTVPSSSLGTQTYICNVNHKPSNTKVDKRVEPKSCDKTHTCPPCPAPEFEGGPSVFLFPPKPKDTLMISRTPEVTCVVVAVSHEDPEVKFNWYVDGVEVHNAKTKPREEQYNSTYRVVSVLTVLHQDWLNGKEYKCKVSNKALPAPIEKTISKAKGQPREPQVYTLPPSREEMTKNQVSLTCLVKGFYPSDIAVEWESNGQPENNYKTTPPVLDSDGSFLLYSKLTVDKSRWQQGNVFSCSVMHEALHNHYTQKSLSLSPGK
VL 1: not shown
heavy 2: QVQLVQSGAEVKKPGASVKVSCKASGYTFTNYGISWVRQAPGQGLEWMGWLSAYSGNTIYAQKLQGRVTMTTDTSTTTAYMELRSLRSDDTAVYYCARDRIVVRPDYFDYWGQGTLVTVSSASTKGPSVFPLAPSSKSTSGGTAALGCLVKDYFPEPVTVSWNSGALTSGVHTFPAVLQSSGLYSLSSVVTVPSSSLGTQTYICNVNHKPSNTKVDKRVEPKSCDKTHTCPPCPAPEFEGGPSVFLFPPKPKDTLMISRTPEVTCVVVAVSHEDPEVKFNWYVDGVEVHNAKTKPREEQYNSTYRVVSVLTVLHQDWLNGKEYKCKVSNKALPAPIEKTISKAKGQPREPQVYTLPPSREEMTKNQVSLTCLVKGFYPSDIAVEWESNGQPENNYKTTPPVLDSDGSFFLYSRLTVDKSRWQQGNVFSCSVMHEALHNHYTQKSLSLSPGK
VL 2: B11 chain 4

- EC50 [4]: 0.28 µg/mL
B14: bsIgG1 huCD3-H3L1×HER2-LFLEDA (bispecific antibody)
heavy 1: B13 heavy 1
VL 1: not shown
heavy 2: B13 heavy 2
VL 2: B11 chain 4
